Data as given in the Human Domainome abundance scans (Beltran et al. 2025).
± gives the uncertainty stated by the source.

Test: abundance fitness (aPCA) (normalised: wild type 0, dead -1); higher = more abundant; growth selection in yeast, the domain comes from the species named
Conditions: Homo sapiens

With “Lipoamide acyltransferase component of branched-chain alpha-keto acid dehydrogenase complex, mitochondrial S189G, P11182” as the substance, how does the abundance fitness read?
The abundance fitness was -0.065 ± 0.039.

Which abundance fitness does the source give for “Lipoamide acyltransferase component of branched-chain alpha-keto acid dehydrogenase complex, mitochondrial N184P, P11182” here?
The abundance fitness was -1.08 ± 0.4.

Which abundance fitness does the source give for “Lipoamide acyltransferase component of branched-chain alpha-keto acid dehydrogenase complex, mitochondrial A176L, P11182” here?
Its abundance fitness is -0.21 ± 0.046.

For “Lipoamide acyltransferase component of branched-chain alpha-keto acid dehydrogenase complex, mitochondrial S189K, P11182”, which abundance fitness is on record?
Its abundance fitness is -0.135 ± 0.068.

For “Lipoamide acyltransferase component of branched-chain alpha-keto acid dehydrogenase complex, mitochondrial I205S, P11182”, which abundance fitness is on record?
Its abundance fitness is -0.332 ± 0.05.

For “Lipoamide acyltransferase component of branched-chain alpha-keto acid dehydrogenase complex, mitochondrial E203C, P11182”, which abundance fitness is on record?
The abundance fitness was -0.053 ± 0.075.

Which abundance fitness does the source give for “Lipoamide acyltransferase component of branched-chain alpha-keto acid dehydrogenase complex, mitochondrial L180D, P11182” here?
The abundance fitness was -0.895 ± 0.16.

With Nanos homolog 2 V87G, P60321 as the substance, how does the abundance fitness read?
Its abundance fitness is -0.082 ± 0.088.

With “Lipoamide acyltransferase component of branched-chain alpha-keto acid dehydrogenase complex, mitochondrial E210L, P11182” as the substance, how does the abundance fitness read?
Its abundance fitness is -0.133 ± 0.041.

With “Lipoamide acyltransferase component of branched-chain alpha-keto acid dehydrogenase complex, mitochondrial V191W, P11182” as the substance, how does the abundance fitness read?
The abundance fitness was -0.899 ± 0.064.

Which abundance fitness does the source give for “Lipoamide acyltransferase component of branched-chain alpha-keto acid dehydrogenase complex, mitochondrial K202G, P11182” here?
The abundance fitness was -0.135 ± 0.038.

Which abundance fitness does the source give for “Lipoamide acyltransferase component of branched-chain alpha-keto acid dehydrogenase complex, mitochondrial S194F, P11182” here?
The abundance fitness was -0.917 ± 0.088.

For “Lipoamide acyltransferase component of branched-chain alpha-keto acid dehydrogenase complex, mitochondrial L180Y, P11182”, which abundance fitness is on record?
Its abundance fitness is -0.079 ± 0.1.

For “Lipoamide acyltransferase component of branched-chain alpha-keto acid dehydrogenase complex, mitochondrial V177S, P11182”, which abundance fitness is on record?
Its abundance fitness is -0.255 ± 0.045.

Which abundance fitness does the source give for “Lipoamide acyltransferase component of branched-chain alpha-keto acid dehydrogenase complex, mitochondrial L206A, P11182” here?
The abundance fitness was -0.08 ± 0.036.

For “Lipoamide acyltransferase component of branched-chain alpha-keto acid dehydrogenase complex, mitochondrial E210Q, P11182”, which abundance fitness is on record?
Its abundance fitness is -0.042 ± 0.053.

For “Lipoamide acyltransferase component of branched-chain alpha-keto acid dehydrogenase complex, mitochondrial D197S, P11182”, which abundance fitness is on record?
Its abundance fitness is -0.205 ± 0.041.

For “Lipoamide acyltransferase component of branched-chain alpha-keto acid dehydrogenase complex, mitochondrial A173K, P11182”, which abundance fitness is on record?
The abundance fitness was -0.391 ± 0.068.

With “Lipoamide acyltransferase component of branched-chain alpha-keto acid dehydrogenase complex, mitochondrial K202S, P11182” as the substance, how does the abundance fitness read?
Its abundance fitness is -0.124 ± 0.049.

With Nanos homolog 2 D85A, P60321 as the substance, how does the abundance fitness read?
The abundance fitness was 0.03 ± 0.11.

For “Lipoamide acyltransferase component of branched-chain alpha-keto acid dehydrogenase complex, mitochondrial S194K, P11182”, which abundance fitness is on record?
The abundance fitness was -0.378 ± 0.057.

With “Lipoamide acyltransferase component of branched-chain alpha-keto acid dehydrogenase complex, mitochondrial L180M, P11182” as the substance, how does the abundance fitness read?
The abundance fitness was 0.008 ± 0.088.

Which abundance fitness does the source give for “Lipoamide acyltransferase component of branched-chain alpha-keto acid dehydrogenase complex, mitochondrial T171K, P11182” here?
The abundance fitness was -0.061 ± 0.069.

Which abundance fitness does the source give for “Lipoamide acyltransferase component of branched-chain alpha-keto acid dehydrogenase complex, mitochondrial K211F, P11182” here?
Its abundance fitness is -0.232 ± 0.065.

With “Lipoamide acyltransferase component of branched-chain alpha-keto acid dehydrogenase complex, mitochondrial P175A, P11182” as the substance, how does the abundance fitness read?
Its abundance fitness is 0.023 ± 0.044.

Which abundance fitness does the source give for “Lipoamide acyltransferase component of branched-chain alpha-keto acid dehydrogenase complex, mitochondrial Y208M, P11182” here?
Its abundance fitness is 0.012 ± 0.052.

With “Lipoamide acyltransferase component of branched-chain alpha-keto acid dehydrogenase complex, mitochondrial K211C, P11182” as the substance, how does the abundance fitness read?
Its abundance fitness is -0.056 ± 0.053.

With “Lipoamide acyltransferase component of branched-chain alpha-keto acid dehydrogenase complex, mitochondrial K196T, P11182” as the substance, how does the abundance fitness read?
The abundance fitness was -0.079 ± 0.044.

With “Lipoamide acyltransferase component of branched-chain alpha-keto acid dehydrogenase complex, mitochondrial I186G, P11182” as the substance, how does the abundance fitness read?
The abundance fitness was -0.748 ± 0.042.

With “Lipoamide acyltransferase component of branched-chain alpha-keto acid dehydrogenase complex, mitochondrial Q212P, P11182” as the substance, how does the abundance fitness read?
Its abundance fitness is -0.017 ± 0.036.

Which abundance fitness does the source give for “Lipoamide acyltransferase component of branched-chain alpha-keto acid dehydrogenase complex, mitochondrial P175K, P11182” here?
The abundance fitness was 0.024 ± 0.042.

With “Lipoamide acyltransferase component of branched-chain alpha-keto acid dehydrogenase complex, mitochondrial G195Y, P11182” as the substance, how does the abundance fitness read?
The abundance fitness was -0.977 ± 0.35.

For “Lipoamide acyltransferase component of branched-chain alpha-keto acid dehydrogenase complex, mitochondrial K187R, P11182”, which abundance fitness is on record?
Its abundance fitness is -0.04 ± 0.039.

For “Lipoamide acyltransferase component of branched-chain alpha-keto acid dehydrogenase complex, mitochondrial P175D, P11182”, which abundance fitness is on record?
Its abundance fitness is 0.038 ± 0.048.

With Nanos homolog 2 H74A, P60321 as the substance, how does the abundance fitness read?
Its abundance fitness is -0.238 ± 0.12.

For “Lipoamide acyltransferase component of branched-chain alpha-keto acid dehydrogenase complex, mitochondrial L188T, P11182”, which abundance fitness is on record?
The abundance fitness was -0.519 ± 0.07.

For “Lipoamide acyltransferase component of branched-chain alpha-keto acid dehydrogenase complex, mitochondrial D204N, P11182”, which abundance fitness is on record?
Its abundance fitness is -0.136 ± 0.4.

Which abundance fitness does the source give for “Lipoamide acyltransferase component of branched-chain alpha-keto acid dehydrogenase complex, mitochondrial G193V, P11182” here?
Its abundance fitness is -0.814 ± 0.05.

With “Lipoamide acyltransferase component of branched-chain alpha-keto acid dehydrogenase complex, mitochondrial S194T, P11182” as the substance, how does the abundance fitness read?
The abundance fitness was -0.013 ± 0.06.

Which abundance fitness does the source give for “Lipoamide acyltransferase component of branched-chain alpha-keto acid dehydrogenase complex, mitochondrial A176S, P11182” here?
Its abundance fitness is -0.036 ± 0.039.

Which abundance fitness does the source give for “Lipoamide acyltransferase component of branched-chain alpha-keto acid dehydrogenase complex, mitochondrial T174F, P11182” here?
The abundance fitness was -0.403 ± 0.075.
